Test results: publication PMC4258231

Target: typhoid toxin B subunit PltB (Salmonella Typhi) (UniProt Q8Z6A3)
Experiment: crystal structure

typhoid toxin B subunit PltB (from UniProt Q8Z6A3 1-137) (natural protein)
stoichiometry N: 5
